According to article PMC12876850 (Cell Death & Disease, 2026):

Molecular target: T1, FLAG-tagged GSK3β (UniProt P49841 1-420)
T1 construct: glycogen synthase kinase-3β, expressed from a plasmid; also called FLAG-GSK3β; source: HEK-293, co-transfected, in lysate
Assay: co-IP; HEK-293 co-transfected with HA-TGase 2 and FLAG-GSK3β at increasing TGase 2:GSK3β plasmid ratios; TGase 2-GSK3β and GSK3β-β-catenin association followed
Conditions: partners not purified

T1 sequence (P49841 whole entry): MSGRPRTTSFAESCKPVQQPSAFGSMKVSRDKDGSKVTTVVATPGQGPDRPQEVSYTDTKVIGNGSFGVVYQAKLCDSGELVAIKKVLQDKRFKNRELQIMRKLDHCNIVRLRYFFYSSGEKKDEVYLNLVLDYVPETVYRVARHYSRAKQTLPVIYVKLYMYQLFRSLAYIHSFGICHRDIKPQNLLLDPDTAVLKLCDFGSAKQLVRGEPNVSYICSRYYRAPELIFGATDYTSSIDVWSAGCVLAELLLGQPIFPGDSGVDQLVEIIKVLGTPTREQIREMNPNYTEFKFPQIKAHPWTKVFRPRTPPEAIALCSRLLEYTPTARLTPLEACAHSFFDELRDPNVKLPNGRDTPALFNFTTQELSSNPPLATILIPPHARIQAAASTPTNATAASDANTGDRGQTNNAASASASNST

percent decrease of the interaction with GSK3β (of β-catenin, by the legend) at TGase 2:GSK3β plasmid ratio 1:1: 52% | percent decrease of the interaction with GSK3β (of β-catenin, by the legend) at TGase 2:GSK3β plasmid ratio 1:2: 45%
B1: HA-tagged wild-type TGase 2 (enzyme, UniProt P21980 1-687, looked up)
chain: MAEELVLERCDLELETNGRDHHTADLCREKLVVRRGQPFWLTLHFEGRNYEASVDSLTFSVVTGPAPSQEAGTKARFPLRDAVEEGDWTATVVDQQDCTLSLQLTTPANAPIGLYRLSLEASTGYQGSSFVLGHFILLFNAWCPADAVYLDSEEERQEYVLTQQGFIYQGSAKFIKNIPWNFGQFEDGILDICLILLDVNPKFLKNAGRDCSRRSSPVYVGRVVSGMVNCNDDQGVLLGRWDNNYGDGVSPMSWIGSVDILRRWKNHGCQRVKYGQCWVFAAVACTVLRCLGIPTRVVTNYNSAHDQNSNLLIEYFRNEFGEIQGDKSEMIWNFHCWVESWMTRPDLQPGYEGWQALDPTPQEKSEGTYCCGPVPVRAIKEGDLSTKYDAPFVFAEVNADVVDWIQQDDGSVHKSINRSLIVGLKISTKSVGRDEREDITHTYKYPEGSSEEREAFTRANHLNKLAEKEETGMAMRIRVGQSMNMGSDFDVFAHITNNTAEEYVCRLLLCARTVSYNGILGPECGTKYLLNLNLEPFSEKSVPLCILYEKYRDCLTESNLIKVRALLVEPVINSYLLAERDLYLENPEIKIRILGEPKQKRKLVAEVSLQNPLPVALEGCTFTVEGAGLTEEQKTVEIPDPVEAGEEVKVRMDLLPLHMGLHKLVVNFESDKLKAVKGFRNVIIGPA
notes: transglutaminase 2, wild type, expressed from a TGM2 plasmid; also called HA-tagged wild-type TGM2; HA-tagged TGase 2; source: HEK-293, co-transfected, in lysate
